# From the Human Domainome abundance scans (Beltran et al. 2025)
# ± gives the uncertainty stated by the source.
# B1: Protein C-ets-1, residues 55 to 135; numbered along this chain, P14921 (parent)
# chain: GFTKEQQRLGIPKDPRQWTETHVRDWVMWAVNEFSLKGVDFQKFCMNGAALCALGKDCFLELAPDFVGDILWEHLEILQKE
# Variants of: B1
# Assay: abundance fitness (aPCA) (normalised: wild type 0, dead -1); higher = more abundant; growth selection in yeast, the domain comes from the species named
# Details: Homo sapiens
row,Variant,abundance fitness
1,GFTKEQQRLGIPKDPRQWTETHVRDWVMWAVNEFSLKGVDFQKFCMNGAALCALGKDCFLELAPDFVGDRLWEHLEILQKE [I70R],-0.036 ± 0.025
2,GFTKEQQRLGIPKDPRQWTETHVRDWVMWAVNEFSLKGVDFQKFCMNGAALCALGKDCFLELAPDFVGDWLWEHLEILQKE [I70W],-0.398 ± 0.048
3,GFTKEQQRLGIPKDPRQWTETHVRDWVMWAVNEFSLKGVDFQKFCMNGAALCALGKDCFLELAPDFVGDYLWEHLEILQKE [I70Y],-0.146 ± 0.067
4,GFTKEQQRLGIPKDPRQWTETHVRDWVMWAVNEFSLKGVDFQKFCMNGAALCALGKDCFLELAPDFVGDCLWEHLEILQKE [I70C],-0.088 ± 0.059
5,GFTKEQQRLGIPKDPRQWTETHVRDWVMWAVNEFSLKGVDFQKFCMNGAALCALGKDCFLELAPDFVGDLLWEHLEILQKE [I70L],-0.077 ± 0.037
6,GFTKEQQRLGIPKDPRQWTETHVRDWVMWAVNEFSLKGVDFQKFCMNGAALCALGKDCFLELAPDFVGDSLWEHLEILQKE [I70S],-0.228 ± 0.037
7,GFTKEQQRLGIPKDPRQWTETHVRDWVMWAVNEFSLKGVDFQKFCMNGAALCALGKDCFLELAPDFVGDGLWEHLEILQKE [I70G],-0.705 ± 0.054
8,GFTKEQQRLGIPKDPRQWTETHVRDWVMWAVNEFSLKGVDFQKFCMNGAALCALGKDCFLELAPDFVGDPLWEHLEILQKE [I70P],-0.289 ± 0.039
9,GFTKEQQRLGIPKDPRQWTETHVRDWVMWAVNEFSLKGVDFQKFCMNGAALCALGKDCFLELAPDFVGDFLWEHLEILQKE [I70F],-0.17 ± 0.055
10,GFTKEQQRLGIPKDPRQWTETHVRDWVMWAVNEFSLKGVDFQKFCMNGAALCALGKDCFLELAPDFVGDTLWEHLEILQKE [I70T],-0.008 ± 0.041
11,GFTKEQQRLGIPKDPRQWTETHVRDWVMWAVNEFSLKGVDFQKFCMNGAALCALGKDCFLELAPDFVGDMLWEHLEILQKE [I70M],-0.102 ± 0.063
12,GFTKEQQRLGIPKDPRQWTETHVRDWVMWAVNEFSLKGVDFQKFCMNGAALCALGKDCFLELAPDFVGDQLWEHLEILQKE [I70Q],-0.035 ± 0.059
13,GFTKEQQRLGIPKDPRQWTETHVRDWVMWAVNEFSLKGVDFQKFCMNGAALCALGKDCFLELAPDFVGDDLWEHLEILQKE [I70D],-0.532 ± 0.099
14,GFTKEQQRLGIPKDPRQWTETHVRDWVMWAVNEFSLKGVDFQKFCMNGAALCALGKDCFLELAPDFVGDKLWEHLEILQKE [I70K],-0.065 ± 0.066
15,GFTKEQQRLGIPKDPRQWTETHVRDWVMWAVNEFSLKGVDFQKFCMNGAALCALGKDCFLELAPDFVGDALWEHLEILQKE [I70A],-0.105 ± 0.033
16,GFTKEQQRLGIPKDPRQWTETHVRDWVMWAVNEFSLKGVDFQKFCMNGAALCALGKDCFLELAPDFVGDNLWEHLEILQKE [I70N],-0.546 ± 0.096
17,GFTKEQQRLGIPKDPRQWTETHVRDWVMWAVNEFSLKGVDFQKFCMNGAALCALGKDCFLELAPDFVGDELWEHLEILQKE [I70E],-0.365 ± 0.052

row,Variant,abundance fitness
1,GFTKEQQRLGIPKDPRQWTETHVRDWVMWAVNEFSLKGVDFQKFCMNGAALCALGKDCFLELAPDFVGDVLWEHLEILQKE [I70V],-0.038 ± 0.043
2,GFTKEQQRLGIPKDPRQWTETHVRDWVMWAVNEFSLKGVDFQKFCMNGAALCALGKDCFLELAPDFVGDITWEHLEILQKE [L71T],-0.883 ± 0.14
3,GFTKEQQRLGIPKDPRQWTETHVRDWVMWAVNEFSLKGVDFQKFCMNGAALCALGKDCFLELAPDFVGDINWEHLEILQKE [L71N],-0.128 ± 0.38
4,GFTKEQQRLGIPKDPRQWTETHVRDWVMWAVNEFSLKGVDFQKFCMNGAALCALGKDCFLELAPDFVGDIVWEHLEILQKE [L71V],-1.05 ± 0.079
5,GFTKEQQRLGIPKDPRQWTETHVRDWVMWAVNEFSLKGVDFQKFCMNGAALCALGKDCFLELAPDFVGDIAWEHLEILQKE [L71A],-1.15 ± 0.21
6,GFTKEQQRLGIPKDPRQWTETHVRDWVMWAVNEFSLKGVDFQKFCMNGAALCALGKDCFLELAPDFVGDICWEHLEILQKE [L71C],-0.834 ± 0.14
7,GFTKEQQRLGIPKDPRQWTETHVRDWVMWAVNEFSLKGVDFQKFCMNGAALCALGKDCFLELAPDFVGDIQWEHLEILQKE [L71Q],-0.938 ± 0.17
8,GFTKEQQRLGIPKDPRQWTETHVRDWVMWAVNEFSLKGVDFQKFCMNGAALCALGKDCFLELAPDFVGDIEWEHLEILQKE [L71E],-0.881 ± 0.15
9,GFTKEQQRLGIPKDPRQWTETHVRDWVMWAVNEFSLKGVDFQKFCMNGAALCALGKDCFLELAPDFVGDIFWEHLEILQKE [L71F],-0.697 ± 0.15
10,GFTKEQQRLGIPKDPRQWTETHVRDWVMWAVNEFSLKGVDFQKFCMNGAALCALGKDCFLELAPDFVGDIMWEHLEILQKE [L71M],-0.176 ± 0.055
11,GFTKEQQRLGIPKDPRQWTETHVRDWVMWAVNEFSLKGVDFQKFCMNGAALCALGKDCFLELAPDFVGDIWWEHLEILQKE [L71W],-0.946 ± 0.11
12,GFTKEQQRLGIPKDPRQWTETHVRDWVMWAVNEFSLKGVDFQKFCMNGAALCALGKDCFLELAPDFVGDISWEHLEILQKE [L71S],-0.805 ± 0.089
13,GFTKEQQRLGIPKDPRQWTETHVRDWVMWAVNEFSLKGVDFQKFCMNGAALCALGKDCFLELAPDFVGDIPWEHLEILQKE [L71P],-0.891 ± 0.1
14,GFTKEQQRLGIPKDPRQWTETHVRDWVMWAVNEFSLKGVDFQKFCMNGAALCALGKDCFLELAPDFVGDIRWEHLEILQKE [L71R],-0.979 ± 0.08
15,GFTKEQQRLGIPKDPRQWTETHVRDWVMWAVNEFSLKGVDFQKFCMNGAALCALGKDCFLELAPDFVGDIKWEHLEILQKE [L71K],-0.978 ± 0.27
16,GFTKEQQRLGIPKDPRQWTETHVRDWVMWAVNEFSLKGVDFQKFCMNGAALCALGKDCFLELAPDFVGDIGWEHLEILQKE [L71G],-0.932 ± 0.072
17,GFTKEQQRLGIPKDPRQWTETHVRDWVMWAVNEFSLKGVDFQKFCMNGAALCALGKDCFLELAPDFVGDIDWEHLEILQKE [L71D],-0.657 ± 0.14
